{"source": "paper PMC5733156", "about": "“Heterologous Secretory Expression and Characterization of Dimerized Bone Morphogenetic Protein 2 in Bacillus subtilis” (BioMed Research International, 2017)", "target": "the molecule itself", "test": "native gel or EMSA; 12% native PAGE in nonreducing condition (without SDS and β-mercaptoethanol), samples not boiled; monomer chain to dimer (the paper calls it disulfide linked)", "data": [{"protein": "recombinant human Bone Morphogenetic Protein 2 (rhBMP2) monomer, from pHT43-BMP2-M (ligand, UniProt P12643 283-396, looked up, Bone Morphogenetic Protein 2, human, mature domain / mature peptide (~399 bp amplicon with sites and His-tag); RBMP2-M, translated, gives ...EGCGCR then GRG then HHHHHH and stop, so three residues (GRG) may lie between BMP2 and the His-tag; also called rhBMP (monomer); source: B. subtilis SCK6, secreted into the culture supernatant (pHT43, amyQ signal peptide); purified by FPLC (Resource Q)) QAKHKQRKRLKSSCKRHPLYVDFSDVGWNDWIVAPPGYHAFYCHGECPFPLADHLNSTNHAIVQTLVNSVNSKIPKACCVPTELSAISMLYLDENEKVVLKNYQDMVVEGCGCR", "values": [{"measurement": "stoichiometry N", "result": 2}]}]}
